{"source": "paper PMC3474736", "about": "“Structural Characterization of the Enzymes Composing the Arginine Deiminase Pathway in Mycoplasma penetrans” (PLoS ONE, 2012)", "molecules": {"B1": {"name": "ornithine carbamoyltransferase (OTC) from Mycoplasma penetrans (enzyme, UniProt Q8EVF5 1-342, looked up)", "chain": "MPVNLKGRSLDSLLNFTTEEVQHLIDLSIDLKKAKYQGLHINNRPLVGKNIAILFQKDSTRTRCAFEVAASDLGAGVTYIGPSGSNMGKKESIEDTAKVLGRFYDGIEFRGFAQSDVDALVKYSGVPVWNGLTDDEHPTQIIADFMTMKEKFGNLKNKKIVFIGDYKNNVGVSTMIGAAFNGMHVVMCGPDNYKNEIDKNVLAKCIELFKRNGGSLRFSTDKILAAQDADVIYTDVWVSLGEPFELFDKRIGELKNFQVDMNMIKAAKNDVIFLHCLPAFHDDHTSFSKEVATTLGAKYPIVAKGEMEVTDEVFQSLHNKAFDQAENRMHSIKAIILSTIGY", "notes": "ornithine carbamoyltransferase (OTC, EC 2.1.3.3), arcB gene product of Mycoplasma penetrans strain GTU-54; traced from Met1 to Tyr342; TGA codons for Trp129 and Trp237 changed to TGG (no change of the amino acids); Dodecamer of four catalytic homotrimers; also called MpOTC; ornitine transcarbamylase; copies: 12"}}, "experiment_in_all_cases": "SEC; HiLoad Superdex 200 26/60 gel-filtration column, 50 mM NaCl, 20 mM Tris-HCl pH 8.0; oligomeric state read from the elution", "key": {"[1]": {"biological_target": "carbamate kinase (CK) from Mycoplasma penetrans (Mycoplasma penetrans)"}, "[2]": {"biological_target": "short-ADI (arginine deiminase from Mycoplasma penetrans, form initiating at Met43 and ending at Lys452) (Mycoplasma penetrans)"}, "[3]": {"biological_target": "the molecule itself"}}, "data": [{"molecule": "carbamate kinase (CK) from Mycoplasma penetrans (enzyme)", "values": [{"measurement": "stoichiometry N", "setting": "[1]", "value": 2}]}, {"molecule": "short-ADI (arginine deiminase from Mycoplasma penetrans, form initiating at Met43 and ending at Lys452) (enzyme)", "values": [{"measurement": "stoichiometry N", "setting": "[2]", "value": 2}]}, {"molecule": "B1", "values": [{"measurement": "stoichiometry N", "setting": "[3]", "value": 12}]}]}
